The DeepSol protein solubility set

Experiment: soluble on expression in E. coli; label from the status in PepcDB or PDB records

Sequence	soluble on expression in E. coli
SNPTITRIELSYQDSSIANGTSTTLEVTAIFDNGTNQNITDSTSIVPDSQSVVTIEGNRVRGIASGSSIIKAEYNGLYSEQKITVTPAILNSIQVTSLESGILPKGTNRQFSAIGIFSDGSHQDISNEPLIVWSSSNPDLVRVDDSGLASGINLGTAHIRASFQSKQGAEEMTVGDAVLSQIQVTSNDLNIPLGKKQKLTATGIYSDNSNRDISSSVIWNSSNSTIANIQNNGILETADTGIVTVSASSENIIGSVKLIVTPAALVSISVSPTNSTVAKGLQENFKATGIFTDNSNSDITDQVTWDSSNTDILSISNASDSHGLASTLNQGNVKVTASIGGIQGSTDFKVTQAALTSIEVSPTRTSIAKGLTQKFTAIGIFTDNSKKDITDQVTWNSSSAIVSVSNLDNNKGLGKTNSVGNTTITATLGKVSGNTWFTVVPAV	not soluble
SNQDEPRCLFVKDADSQVDLQITFRGFSRPDPQLAASRLLRRVLAGGGCSRLHLNLRERLGIVYSVDAQVAAYDETGCFSIELSTAPENLLTAVEEVLGETRKLAAEPVGAEELRRVRQGYFFDLAYSEDSTFEMQVRYGWGELMGMVKGIDEERAEVEAVDEGTLQAVARRLFAPAALNLVAVGPVTATAKRRIEQLLRRYAKEFPTSSQPPGP	not soluble
SNRLPDDYDPYAVEEPSDEEPALSSSEDEVDVLLHGTPDQKRKLIRECLTGESESSSEDEFEKEMEAELNSTMKTMEDKLSSLGTGSSSGNGKVATAPTRYYDDIYFDSDSEDEDRAVQVTKKKKKKQHKIPTNDELLYDPEKDNRDQAWVDAQRRGYHGLGPQRSREQQPVPNSDAVLNCPACMTTLCLDCQRHESYKTQYRAMFVMNCSINKEEVLRYKASENRKKRRVHKKMRSNQEDAAEKAETDVEEIYHPVMCTECSTEVAVYDKDEVFHFFNVLASHS	soluble
SPGSAAKGSELSERIESFVETLKRGGGPRSSEEMARETLGLLRQIITDHRWSNAGELMELIRREGRRMTAAQPSETTVGNMVRRVLKIIREEYGRLHGRTDESDQQESLHKLLTSGGLNEDFSFHYAQLQSNIIEAINELLVELEGTMENIAAQALEHIHSNEVIMTIGFSRTVEAFLKEAARKRKFHVIVAECAPFCQGHEMAVNLSKAGIETTVMTDAAIFAVMSRVNKVIIGTKTILANGALRAVTGTHTLALAAKHHSTPLIVCAPMFKLSPQFPNEEDSFHKFVAPEEVLPFTEGDILEKVSVHCPVFDYVPPELITLFISNIGGNAPSYIYRLMSELYHPDDHVL	soluble
SPMPAGRPRFLRSMALSSQTREWLEKGMPTEAEAGVPIRLQERAANTAPQARAEERHTQPADAAAPHARAERGRTLQAPASTSPLYTGAVPRANRIVQQLVEAGADLANIRTMFRNMLRGEEMILSRAEQNVFLQHFPDMLPCGIDRNSELAIALREALRRADSQQAARAPARTPPRSS	soluble
SPRIAEKMLRKRHGQAAFAAYVEKREQTRAAARAYDQRALQGDLEIIYNFGQDLIDEHAIEVSAEQVTVPGFSQPLVYKKDARFSDMLD	not soluble
SQPNSSIIKYPNKVRNLPGIAASLRTVGYSTHHLYGGDADFTNVRSYLYGTGYDEVTDVSSFPFKTRLSKWGTPDHISFPRLLDDCRRLEKEKKPYFYSFLTLSSHEPFDVPSQHHPDPYLNSVFYTDSCFGDYIRGMQQSPQWKNTLIIAVSDHGYPYPADQAMPDQPGRYGIVMLWAGGAILRPIRFEEVVSQSDLPATLLAQLGLTHDEFVFSKDVFRRNSPHFAYFSFPGLVGLATSEGTTIYDFAGDKIVYGHEAPLADQRAIAAKVMLQSVMKDMLSR	not soluble
SREPVDILREQKINAEWALKQQSDKLAAQFDNMDDAYLRERKQDMLQVVRRIHNNLIGQGNELEVADNLFDETVLIANDLSPADTVLFKEQR	not soluble
SREWRTKIQAQIDRFPIGDREGEWQTMIQKMVSSYLVHHGYCATAEAFARSTDQTVLEELASIKNRQRIQKLVLAGRMGEAIETTQQLYPSLLERNPNLLFTLKVRQFIEMVNGTDSEVRCLGGRSPKSQDSYPVSPRPFSSPSMSPSHGMNIHNLASGKGSTAHFSGFESCSNGVISNKAHQSYCHSNKHQSSNLNVPELNSINMSRSQQVNNFTSNDVDMETDHYSNGVGETSSNGFLNGSSKHDHEMEDCDTEMEVDSSQLRRQLCGGSQAAIERMIHFGRELQAMSEQLRRDCGKNTANKKMLKDAFSLLAYSDPWNSPVGNQLDPIQREPVCSALNSAILETHNLPKQPPLALAMGQATQCLGLMARSGIGSCAFATVEDYLH	soluble
SRLKLFSILSMMLLRPKDTVDSQGQFRGYLDMVINDILAPNLQWHAGRTAAAIRTAAISCLWALISSDILSAKQVQEAQETLMPQVLATLEDDSQTTRLMSCRIINMFLKNSGDTMEPEKFLKVYPELLKRLDDVSNDVRMAAASALLTWLKCIESLDGKSAYQSSVQFLYRELLVHLDDPESAIQDTVLEVLKEGSVLFPDVLVRETEAVVHKHRSATYCEQLLQHMQTMAAAR	soluble
SRRMKANARERNRMHGLNAALDNLRKVVPCYSKTQKLSKIETLRLAKNYIWALSEILRSG	soluble
SSAKAQVNPAICRYPLGMSGGQIPDEDITASSQWSESTAAKYGRLDSEEGDGAWCPEIPVEPDDLKEFLQIDLHTLHFITLVGTQGRHAGGHGIEFAPMYKINYSRDGTRWISWRNRHGKQVLDGNSNPYDIFLKDLEPPIVARFVRFIPVTDHSMNVCMRVELYGCVWLDGLVSYNAPAGQQFVLPGGSIIYLNDSVYDGAVGYSMTEGLGQLTDGVSGLDDFTQTHEYHVWPGYDYVGWRNESATNGYIEIMFEFDRIRNFTTMKVHCNNMFAKGVKIFKEVQCYFRSEASEWEPNAISFPLVLDDVNPSARFVTVPLHHRMASAIKCQYHFADTWMMFSEITFQSDAAM	not soluble
SSENLDKSNVNEAGKSKSNDSEEGLEDAVEGADEALQKAIKSDSSSPQRVQRPHSSPPRFVTVEELLETARGVTNMALAHEIVVNGDFQIKPVELPENSLKKRVKEIVHKAFWDCLSVQLSEDPPAYDHAIKLVGEIKETLLSFLLPGHTRLRNQITEVLDLDLIKQEAENGALDISRLAEFIIGMMGTLCAPARDEEVKKLKDIKEIVPLFREIFSVLDLMKVDMANFAISSIRPHLMQQSVEYERKKFQEILERQPNSLDFVTQWLEEASEDLMTQKYKHALPVGGMAAGSGDMPRLSPVAVQNYAYLKLLKWDHLQRPFPETVLMDQSRFHELQLQLEQLTILGAVLLVTFSMAAPGISSQADFAEKLKMIVKILLTDMHLPSFHLKDVLTTIGEKVCLEVSSCLSLCGSSPFTTDKETVLKGQIQAVASPDDPIRRIMESRILTFLETYLASGHQKPLPTVPGGLSPVQRELEEVAIKFARLVNYNKMVFCPYYDAILSKILVRS	soluble
SSKVEQLRAQLNERILVLDGGMGTMIQSYRLNEADFRGERFADWPCDLKGNNDLLVLSKPEVIAAIHNAYFEAGADIIETNTFNSTTIAMADYQMESLSAEINFAAAKLARACADEWTARTPEKPRYVAGVLGPTNRTASISPDVNDPAFRNITFDQLVAAYRESTKALVEGGADLILIETVFDTLNAKAAVFAVKTEFEALGVELPIMISGTITDASGRTLSGQTTEAFYNSLRHAEALTFGLNCALGPDELRQYVQELSRIAECYVTAHPNAGLPNAFGEYDLDADTMAKQIREWAEAGFLNIVGGCCGTTPQHIAAMSRAVEGLAPRKLPEIPVACRLSGLEPLNIGEDSLFVNVGERTNVTGSAKF	not soluble
SSLAISVANDDAGIFQPSLNALYGHPAADRGDYTAGLFLGYSHDLTDASQLSFHIAQDIYSPSGANKRKPEAVKGDRAFSAFLHTGLEWNSLATNWLRYRLGTDIGVIGPDAGGQEVQNRAHRIIGAEKYPAWQDQIENRYGYTAKGMVSLTPAIDILGVNVGFYPEVSAVGGNLFQYLGYGATVALGNDKTFNSDNGFGLLSRRGLIHTQKEGLIYKVFAGVERREVDKNYTLQGKTLQTKMETVDINKTVDEYRVGATIGYSPVAFSLSLNKVTSEFRTGDDYSYINGDITFFF	soluble
SSQVPDVMVVGEPTLMGGEFGDEDERLITRLENTQFDAANGIDDEGGSGGHMGSGGTPEIPMCAGCDQHILDRFILKALDRHWHSKCLKCSDCHVPLAERCFSRGESVYCKDDFFKRFGTKCAACQLGIPPTQVVRRAQDFVYHLHCFACVVCKRQLATGDEFYLMEDSRLVCKADYETAKQ	soluble
SSRHVFLTGPPGVGKTTLIQKAIEVLQSSGLPVDGFYTQEVRQEGKRIGFDVVTLSGAQGPLSRVGSQPLPGKPECRVGQYVVNLDSFEQLALPVLRNAGSSCGPKHRVCIIDEIGKMELFSQPFIQAVRQMLSTPGIIVVGTIPVPKGKPLALVEEIRKRRDVKVFNVTRDNRNSLLPDIVAVVQSSRT	soluble
SSSSSSVPAYLGDEDLTQETRALISSLPKEKGWLVSEIYEFQGLWHTQAILQGILICQKRFEAKDSDIILVTNPKSGTTWLKALVFALLNRHKFPVSSSGNHPLLVTNPHLLVPFLEGVYYESPDFDFSSLPSPRLMNTHISHLSLPESVKSSSCKIVYCCRNPKDMFVSLWHFGKKLAPEETADYPIEKAVEAFCEGKFIGGPFWDHILEYWYASRENPNKVLFVTYEELKKQTEVEMKRIAEFLECGFIEEEEVREIVKLCSFESLSNLEVNKEGKLPNGIETKTFFRKGEIGGWRDTLSESLAEEIDRTIEEKFKGSGLKFSS	soluble
SSTHVAGLGLDKMKLGNPQSFLDQEEADDQQLLEPEAWKTYTERRNALREFLTSDLSPHLLKRHHARMQLLRKCSYYIEVLPKHLALGDQNPLVLPSALFQLIDPWKFQRMKKVGTAQTKIQLLLLGDLLEQLDHGRAELDALLRSPDPRPFLADWALVERRLADVSAVMDSFLTMMVPGRLHVKHRLVSDVSATKIPHIWLMLSTKMPVVFDRKASAAHQDWARLRWFVTIQPATSEQYELRFRLLDPRTQQECAQCGVIPVAACTFDVRNLLPNRSYKFTIKRAETSTLVYEPWRDSLTLHTKPEPLEGPALSHSV	soluble
SSVDPMTYEAQFFGFTPQTCMLRIYIAFQDYLFEVMQAVEQVILKKLDGIPDCDISPVQIRKCTEKFLCFMKGHFDNLFSKMEQLFLQLILRIPSNILLPEDKCKETPYSEEDFQHLQKEIEQLQEKYKTELCTKQALLAELEEQKIVQAKLKQTLTFFDELHNVGRDHGTSDFRESLVSLVQNSRKLQNIRDNVEKESKRLKIS	soluble
SSWAIHYIGKSVEQLTGYSKMDFITRKLTWSDLICPEDIPALNKVVQKATKNRTPYQVEYRIKKADGSTVFIQEQAHPVNDDKGNLAYVDGVFLDV	not soluble
SSWWTHVEMGPPDPILGVTEAFKRDTNSKKMNLGVGAYRDDNGKPYVLPSVRKAEAQIAAKNLDKEYLPIGGLAEFCKASAELALGENNEVLKSGRFVTVQTISGTGALRVGASFLQRFFKFSRDVFLPKPSWGNHTPIFRDAGMQLQGYRYYDPKTCGFDFSGALEDISKIPEQSVLLLHACAHNPTGVDPRPEQWKEIASVVKKKNLFAFFDMAYQGFASGDGDKDAWAVRHFIEQGINVCLCQSYAKNMGLYGERVGAFTVVCKDAEEAKRVESQLKILIRPLYSNPPLNGARIAATILTSPDLRKQWLQEVKGMADRIISMRTQLVSNLKKEGSSHNWQHITDQIGMFCFTGLKPEQVERLTKEFSVYMTKDGRISVAGVTSGNVGYLAHAIHQVTK	soluble
STGKKPKHHVLSHDIIPASKPIAEKLQIQPESPVVELKRILYNDDQPLTFEVTHYPLDLFPGIDTFIADGVSMHDILKQQYKVVPTHNTKLLNVVYAQQEESKYLDCDIGDALFEIDKTAFTSNDQPIYCSLFLMHTNRVT	not soluble
